In article PMC4794909, “The transcription factor scleraxis is a critical regulator of cardiac fibroblast phenotype”:
Numbering of substitutions follows the chain as printed.

T1: scleraxis (Scx) (UniProt Q6P6L3 1-207)
T1 sequence: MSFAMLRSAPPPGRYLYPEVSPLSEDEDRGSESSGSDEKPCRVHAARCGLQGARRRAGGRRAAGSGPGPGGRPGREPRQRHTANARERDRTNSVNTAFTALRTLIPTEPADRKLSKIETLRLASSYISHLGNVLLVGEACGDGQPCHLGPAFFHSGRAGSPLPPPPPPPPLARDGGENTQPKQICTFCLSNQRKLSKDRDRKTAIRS

B1: E box 1 (E1), αSMA promoter (dsDNA)
DNA 1: GTCTGGGCATTTGAGCAGTTGTTCTGAGGGCTCAGG
DNA 2: CCTGAGCCCTCAGAACAACTGCTCAAATGCCCAGAC
B2: E box 1 mutant (mE1) (dsDNA)
DNA 1: B1 DNA 1 with A17C, T19A
DNA 2: B1 DNA 2 with A18T, T20G
B3: E box 2 (E2), αSMA promoter (dsDNA)
DNA 1: GTTTATCCCCATAAGCAGCTGAACTGCCTCCTGTTT
DNA 2: AAACAGGAGGCAGTTCAGCTGCTTATGGGGATAAAC
B4: E box 2 mutant (mE2) (dsDNA)
DNA 1: B3 DNA 1 with A17T, C19G
DNA 2: B3 DNA 2 with G18C, T20A

Each binder was assayed against T1, scleraxis (Scx) (assay: EMSA; LightShift Chemiluminescent EMSA Kit (Pierce) per manufacturer, as in ref. 18; 500x cold competition; buffer, salt, pH and temperature not given). Details: chain copies: 2; label: biotin; blunt.

Row | Binder | binding result
1 | B1 | binds
2 | B2 | no binding
3 | B3 | binds
4 | B4 | no binding
